Assay results as given in paper PMC6568178 (Theranostics, 2019).

How the values were obtained:
[1] = biological target: T1, FOXM1 (endogenous) (human (endogenous in MDA-MB-231 and …, UniProt Q08050 1-763)); assay: cell-based or functional assay
T1 sequence: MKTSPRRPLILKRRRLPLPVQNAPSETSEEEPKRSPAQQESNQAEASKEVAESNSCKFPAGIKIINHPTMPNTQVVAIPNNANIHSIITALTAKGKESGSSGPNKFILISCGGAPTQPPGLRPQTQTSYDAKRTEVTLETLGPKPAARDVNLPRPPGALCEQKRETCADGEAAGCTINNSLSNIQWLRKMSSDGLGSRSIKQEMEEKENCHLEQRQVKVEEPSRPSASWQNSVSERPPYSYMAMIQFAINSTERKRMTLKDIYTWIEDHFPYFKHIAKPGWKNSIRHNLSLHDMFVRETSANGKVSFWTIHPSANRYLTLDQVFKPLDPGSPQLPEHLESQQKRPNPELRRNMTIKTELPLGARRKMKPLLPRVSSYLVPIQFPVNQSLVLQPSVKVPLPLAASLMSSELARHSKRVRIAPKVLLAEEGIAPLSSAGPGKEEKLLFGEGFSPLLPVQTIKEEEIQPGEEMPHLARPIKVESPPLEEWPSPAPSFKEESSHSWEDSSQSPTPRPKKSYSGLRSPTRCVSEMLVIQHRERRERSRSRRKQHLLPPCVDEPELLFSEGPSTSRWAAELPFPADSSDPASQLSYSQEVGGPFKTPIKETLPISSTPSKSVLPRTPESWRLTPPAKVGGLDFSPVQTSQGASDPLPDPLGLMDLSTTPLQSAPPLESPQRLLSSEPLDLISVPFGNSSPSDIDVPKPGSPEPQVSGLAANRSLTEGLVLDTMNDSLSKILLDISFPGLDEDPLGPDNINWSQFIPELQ

[2] = biological target: T2, FOXM1 full-length;M1-138 (6xHis-FOXM1(1-138)-R9) (human?;human?, UniProt Q08050-2;Q08050-2 1-748;1-138, |); assay: EMSA
T2 sequence 1: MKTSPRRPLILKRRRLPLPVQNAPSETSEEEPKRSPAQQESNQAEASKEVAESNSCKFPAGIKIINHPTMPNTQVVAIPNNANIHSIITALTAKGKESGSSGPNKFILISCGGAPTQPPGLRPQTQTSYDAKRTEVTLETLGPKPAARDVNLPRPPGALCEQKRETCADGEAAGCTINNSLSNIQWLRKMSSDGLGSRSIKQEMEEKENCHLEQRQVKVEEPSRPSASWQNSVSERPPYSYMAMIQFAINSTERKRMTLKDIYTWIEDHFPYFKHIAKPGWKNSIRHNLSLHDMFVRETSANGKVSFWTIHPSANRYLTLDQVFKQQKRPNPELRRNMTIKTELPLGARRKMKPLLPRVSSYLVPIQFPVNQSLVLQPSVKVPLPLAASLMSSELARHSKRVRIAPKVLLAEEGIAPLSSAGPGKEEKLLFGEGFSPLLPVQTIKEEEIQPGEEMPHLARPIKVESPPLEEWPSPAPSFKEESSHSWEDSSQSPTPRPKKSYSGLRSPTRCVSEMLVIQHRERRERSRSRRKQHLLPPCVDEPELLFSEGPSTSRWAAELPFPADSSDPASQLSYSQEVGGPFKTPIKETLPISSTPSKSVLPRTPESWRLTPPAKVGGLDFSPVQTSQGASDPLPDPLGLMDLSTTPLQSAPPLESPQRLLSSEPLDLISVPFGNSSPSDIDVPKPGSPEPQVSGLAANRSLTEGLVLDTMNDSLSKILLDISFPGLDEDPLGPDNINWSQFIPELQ
T2 sequence 2: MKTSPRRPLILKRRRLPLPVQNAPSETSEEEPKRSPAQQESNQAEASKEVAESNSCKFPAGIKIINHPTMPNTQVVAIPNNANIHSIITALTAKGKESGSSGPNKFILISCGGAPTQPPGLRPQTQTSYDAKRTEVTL

[3] = biological target: T3, FOXM1 full-length (UniProt Q08050-2 1-748); assay: EMSA
T3 sequence: T2 sequence 1

B1: M1-138 (recombinant FOXM1 N-terminal domain (1-138aa) fused with a nine arginine cell-penetrating peptide) (domain or fragment)
chain: MKTSPRRPLILKRRRLPLPVQNAPSETSEEEPKRSPAQQESNQAEASKEVAESNSCKFPAGIKIINHPTMPNTQVVAIPNNANIHSIITALTAKGKESGSSGPNKFILISCGGAPTQPPGLRPQTQTSYDAKRTEVTLRRRRRRRRR
[1]
  IC50 of cell viability (CCK-8), A549 cells, 12 h treatment: 5.3 µM
  IC50 of cell viability (CCK-8), Hela cells, 12 h treatment: 8.9 µM
  IC50 of cell viability (CCK-8), HepG2 cells, 12 h treatment: 13.8 µM
  IC50 of cell viability (CCK-8), MCF-7 cells, 12 h treatment: 17.9 µM
  IC50 of cell viability (CCK-8), MDA-MB-231 cells, 12 h treatment: 7.8 µM

B2: FAM-labeled FOXM1 dsDNA probe (Hot) (dsDNA)
DNA 1: TTTGTTTATTTGTTTGTTTATTTG
DNA 2: CAAATAAACAAACAAATAAACAAA
[2]
  binding result: binds
[3]
  binding result: binds
